Assay results reported in US20140341881A1 (DERMADIS, published 2014).
Values belong to the binder of their own block, whether it stands above or below them.

B1: human kallikrein 14 (hK14) (enzyme, UniProt Q9P0G3 25-251, looked up)
chain: IIGGHTCTRSSQPWQAALLAGPRRRFLCGGALLSGQWVITAAHCGRPILQVALGKHNLRRWEATQQVLRVVRQVTHPNYNSRTHDNDLMLLQLQQPARIGRAVRPIEVTQACASPGTSCRVSGWGTISSPIARYPASLQCVNINISPDEVCQKAYPRTITPGMVCAGVPQGGKDSCQGDSGGPLVCRGQLQGLVSWGMERCALPGYPGVYTNLCKYRSWIEETMRDK
notes: range counted on GenBank AAK48524 (printed), which may differ from the UniProt numbering; also called recombinant hK14

What was measured:
[1] = target: T1, AATWT (recombinant wild type alpha-1-antitrypsin) (human, UniProt P01009 25-418); assay: progress curve, pseudo-first order, 37 C
T1 construct: mature; also called rAATwt; rAAT
T1 sequence (P01009 other isoform, or with tags, fused parts or gaps): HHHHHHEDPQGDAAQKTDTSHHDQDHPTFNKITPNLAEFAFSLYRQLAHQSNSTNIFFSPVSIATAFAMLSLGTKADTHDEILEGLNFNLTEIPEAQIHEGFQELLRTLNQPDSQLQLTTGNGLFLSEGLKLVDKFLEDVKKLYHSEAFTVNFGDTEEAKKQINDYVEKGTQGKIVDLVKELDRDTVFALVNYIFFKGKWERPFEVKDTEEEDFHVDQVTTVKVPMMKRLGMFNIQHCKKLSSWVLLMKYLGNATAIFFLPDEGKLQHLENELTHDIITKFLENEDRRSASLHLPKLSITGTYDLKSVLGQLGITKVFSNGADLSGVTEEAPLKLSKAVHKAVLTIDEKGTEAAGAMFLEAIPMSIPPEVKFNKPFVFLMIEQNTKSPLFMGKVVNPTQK
Method: (§1) The association rate constants for interactions of hK14, with different inhibitors were determined under pseudo-first order conditions using the progress curve method (Morrison and Walsh, 1988). Under these conditions, a fixed amount of enzyme (2 nM) was mixed with different concentrations of inhibitor (0-80 nM) and an excess of substrate (20 μM). Reactions were performed in reaction buffer (50 mM Tris pH 7.5, 150 mM NaCl, 0.05% Triton X-100, 0.01% BSA) at 37° C. for 45 min and the rate of product formation was measured using a FLₓ800 fluorescence 96-well microplate reader (Biotek, USA) Inhibition is considered to be irreversible over the course of reaction and the progression of enzyme activity is expressed as product formation (P), beginning at a rate (vz) and is inhibited over time (t) at a first-order rate (kobs), where the rate constant is only dependent on the inhibitor concentration.
(§2) Kinetic analysis of the inhibition of human hK14 by recombinant serpins were performed under pseudo-first-order conditions using an excess of inhibitor at various molar ratios of hK14. The time-dependent inactivation of the enzyme through reaction with serpin was monitored continuously, following the decrease in the rate of substrate turnover. Progress curves for reactions with different serpin concentrations were fitted to equation 1 to calculate values describing the rate constant (kobs). The association rate constants (kₐ) were determined from the slope of kobs values versus the concentration of the hK14 inhibitors.

AATG9 [2] = target: T2, AATG9 (human, UniProt P01009 25-418); assay: progress curve, pseudo-first order, 37 C
T2 construct: mature; also called rAATG9
T2 sequence (P01009 other isoform, or with tags, fused parts or gaps): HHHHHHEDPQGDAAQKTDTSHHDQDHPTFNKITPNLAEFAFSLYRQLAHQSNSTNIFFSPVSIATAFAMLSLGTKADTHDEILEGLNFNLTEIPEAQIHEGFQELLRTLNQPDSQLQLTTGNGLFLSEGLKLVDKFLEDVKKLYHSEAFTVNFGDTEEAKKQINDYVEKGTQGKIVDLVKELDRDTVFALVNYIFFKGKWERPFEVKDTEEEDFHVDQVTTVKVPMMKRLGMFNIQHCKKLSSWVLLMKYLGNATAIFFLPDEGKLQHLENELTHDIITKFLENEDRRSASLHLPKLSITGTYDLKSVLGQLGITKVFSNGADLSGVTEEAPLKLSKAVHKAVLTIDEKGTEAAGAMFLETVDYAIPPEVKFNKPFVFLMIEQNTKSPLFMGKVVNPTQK
Method: as §1, §2

AATE8 = target: T3, AATE8 (human, UniProt P01009 25-418); assay: progress curve; * [I0]/[E0] < 5 * SI
T3 construct: mature; also called rAATE8
T3 sequence (P01009 other isoform, or with tags, fused parts or gaps): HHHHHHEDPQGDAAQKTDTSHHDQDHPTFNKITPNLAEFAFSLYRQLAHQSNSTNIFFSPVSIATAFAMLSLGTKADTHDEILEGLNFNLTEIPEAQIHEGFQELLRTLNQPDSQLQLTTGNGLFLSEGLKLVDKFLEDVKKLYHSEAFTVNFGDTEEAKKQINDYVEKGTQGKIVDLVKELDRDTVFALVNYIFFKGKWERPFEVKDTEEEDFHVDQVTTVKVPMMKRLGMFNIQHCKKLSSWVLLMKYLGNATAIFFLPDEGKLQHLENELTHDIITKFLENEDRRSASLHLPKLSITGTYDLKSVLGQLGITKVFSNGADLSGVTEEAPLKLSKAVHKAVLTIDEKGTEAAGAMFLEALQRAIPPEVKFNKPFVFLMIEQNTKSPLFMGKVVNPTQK
Method: as §1

AATE5 = target: T4, AATE5 (human, UniProt P01009 25-418); assay: progress curve; * [I0]/[E0] < 5 * SI
T4 construct: mature
T4 sequence (P01009 other isoform, or with tags, fused parts or gaps): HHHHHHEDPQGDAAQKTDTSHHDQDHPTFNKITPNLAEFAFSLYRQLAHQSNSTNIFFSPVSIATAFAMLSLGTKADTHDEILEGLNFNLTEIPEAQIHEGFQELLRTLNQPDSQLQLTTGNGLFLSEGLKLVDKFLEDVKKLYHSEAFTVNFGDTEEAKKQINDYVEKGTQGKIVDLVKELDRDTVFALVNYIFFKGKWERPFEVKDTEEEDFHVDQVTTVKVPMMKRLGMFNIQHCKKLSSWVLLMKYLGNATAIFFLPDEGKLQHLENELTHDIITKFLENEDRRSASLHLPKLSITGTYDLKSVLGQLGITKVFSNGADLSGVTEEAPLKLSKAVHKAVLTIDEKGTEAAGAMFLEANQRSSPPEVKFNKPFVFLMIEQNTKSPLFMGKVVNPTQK
Method: as §1

AATC11 = target: T5, AATC11 (human, UniProt P01009 25-418); assay: progress curve; * [I0]/[E0] < 5 * SI
T5 construct: mature
T5 sequence (P01009 other isoform, or with tags, fused parts or gaps): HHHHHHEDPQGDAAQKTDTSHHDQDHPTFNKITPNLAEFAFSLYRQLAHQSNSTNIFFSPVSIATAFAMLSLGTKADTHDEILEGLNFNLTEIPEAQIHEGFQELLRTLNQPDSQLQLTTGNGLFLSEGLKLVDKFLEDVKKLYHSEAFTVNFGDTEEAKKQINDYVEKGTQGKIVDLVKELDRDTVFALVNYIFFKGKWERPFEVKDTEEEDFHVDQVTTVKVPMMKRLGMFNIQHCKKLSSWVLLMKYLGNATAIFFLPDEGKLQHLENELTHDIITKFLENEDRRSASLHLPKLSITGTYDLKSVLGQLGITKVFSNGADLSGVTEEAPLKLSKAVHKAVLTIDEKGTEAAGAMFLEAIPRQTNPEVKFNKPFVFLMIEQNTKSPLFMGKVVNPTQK
Method: as §1

AATF3 = target: T6, AATF3 (human, UniProt P01009 25-418); assay: progress curve; * [I0]/[E0] < 5 * SI
T6 construct: mature
T6 sequence (P01009 other isoform, or with tags, fused parts or gaps): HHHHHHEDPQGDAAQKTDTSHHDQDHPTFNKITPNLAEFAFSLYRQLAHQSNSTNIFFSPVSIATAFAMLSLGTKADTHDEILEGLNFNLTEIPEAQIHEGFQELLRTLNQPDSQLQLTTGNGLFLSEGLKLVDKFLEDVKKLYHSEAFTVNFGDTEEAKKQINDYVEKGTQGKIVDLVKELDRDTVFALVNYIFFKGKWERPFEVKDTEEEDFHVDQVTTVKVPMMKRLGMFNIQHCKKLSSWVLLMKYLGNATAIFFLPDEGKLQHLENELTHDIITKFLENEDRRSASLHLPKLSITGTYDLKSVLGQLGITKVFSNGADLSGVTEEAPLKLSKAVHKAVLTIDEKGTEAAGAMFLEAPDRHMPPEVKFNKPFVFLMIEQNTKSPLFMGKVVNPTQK
Method: as §1

AATG1 = target: T7, AATG1 (human, UniProt P01009 25-418); assay: progress curve; * [I0]/[E0] < 5 * SI
T7 construct: mature
T7 sequence (P01009 other isoform, or with tags, fused parts or gaps): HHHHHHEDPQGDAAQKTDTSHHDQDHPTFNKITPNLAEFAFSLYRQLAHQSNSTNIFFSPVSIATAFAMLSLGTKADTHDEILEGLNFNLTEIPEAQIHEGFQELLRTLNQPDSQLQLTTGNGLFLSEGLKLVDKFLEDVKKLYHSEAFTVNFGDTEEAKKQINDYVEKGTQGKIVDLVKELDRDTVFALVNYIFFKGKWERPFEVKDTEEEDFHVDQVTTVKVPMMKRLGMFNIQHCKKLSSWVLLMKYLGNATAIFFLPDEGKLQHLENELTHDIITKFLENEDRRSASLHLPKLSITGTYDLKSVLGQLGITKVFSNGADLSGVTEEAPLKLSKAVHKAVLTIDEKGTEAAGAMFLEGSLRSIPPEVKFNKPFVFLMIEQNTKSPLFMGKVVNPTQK
Method: as §1

AATG1g = target: T8, AATG1g (human, UniProt P01009 25-418); assay: progress curve; * [I0]/[E0] < 5 * SI
T8 construct: mature
T8 sequence (P01009 other isoform, or with tags, fused parts or gaps): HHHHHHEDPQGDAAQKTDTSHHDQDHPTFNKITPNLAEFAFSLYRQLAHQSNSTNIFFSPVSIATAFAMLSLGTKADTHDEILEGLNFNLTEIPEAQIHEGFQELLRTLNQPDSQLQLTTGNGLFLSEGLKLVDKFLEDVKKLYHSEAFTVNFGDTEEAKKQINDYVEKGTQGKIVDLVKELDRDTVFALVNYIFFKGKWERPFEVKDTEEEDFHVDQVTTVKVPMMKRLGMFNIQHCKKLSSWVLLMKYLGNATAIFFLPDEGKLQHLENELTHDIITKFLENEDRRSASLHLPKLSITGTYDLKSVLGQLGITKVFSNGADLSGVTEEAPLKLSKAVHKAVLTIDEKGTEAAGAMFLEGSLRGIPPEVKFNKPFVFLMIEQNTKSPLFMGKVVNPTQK
Method: as §1

[3] = target: T1, AATWT (recombinant wild type …); assay: progress curve
Method: as §1

AATG9 [4] = target: T2, AATG9; assay: progress curve
Method: as §1

[5] = target: B1; assay: progress curve
[6] = target: B1; assay: progress curve, pseudo-first order, 37 C
Method: as §1, §2

human kallikrein 5 (hK5) = target: T9, human kallikrein 5 (hK5) (human, UniProt Q9Y337 67-293, limits assumed); assay: cell-based or functional assay
T9 sequence (looked up): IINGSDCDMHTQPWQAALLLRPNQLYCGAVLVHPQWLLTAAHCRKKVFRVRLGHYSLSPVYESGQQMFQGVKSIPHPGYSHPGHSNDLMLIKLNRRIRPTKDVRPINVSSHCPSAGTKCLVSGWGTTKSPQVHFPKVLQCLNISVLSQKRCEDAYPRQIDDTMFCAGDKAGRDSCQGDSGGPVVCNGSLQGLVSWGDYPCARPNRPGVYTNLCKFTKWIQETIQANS

[7] = target: human chymotrypsin (Chtr) (human, UniProt P17538 19-263); assay: cell-based or functional assay
human chymotrypsin (Chtr), sequence (P17538 19-263): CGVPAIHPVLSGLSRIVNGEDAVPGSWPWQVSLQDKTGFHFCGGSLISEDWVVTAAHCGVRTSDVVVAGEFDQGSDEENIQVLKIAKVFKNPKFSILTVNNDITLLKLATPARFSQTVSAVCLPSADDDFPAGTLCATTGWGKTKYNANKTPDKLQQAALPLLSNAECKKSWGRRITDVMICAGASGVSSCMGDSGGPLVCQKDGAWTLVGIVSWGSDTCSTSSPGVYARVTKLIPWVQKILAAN

thrombin = assay: cell-based or functional assay
[8] = target: human plasma kallikrein (PK) (human, UniProt P03952 20-638); assay: cell-based or functional assay
human plasma kallikrein (PK), sequence (P03952 20-638 limits assumed): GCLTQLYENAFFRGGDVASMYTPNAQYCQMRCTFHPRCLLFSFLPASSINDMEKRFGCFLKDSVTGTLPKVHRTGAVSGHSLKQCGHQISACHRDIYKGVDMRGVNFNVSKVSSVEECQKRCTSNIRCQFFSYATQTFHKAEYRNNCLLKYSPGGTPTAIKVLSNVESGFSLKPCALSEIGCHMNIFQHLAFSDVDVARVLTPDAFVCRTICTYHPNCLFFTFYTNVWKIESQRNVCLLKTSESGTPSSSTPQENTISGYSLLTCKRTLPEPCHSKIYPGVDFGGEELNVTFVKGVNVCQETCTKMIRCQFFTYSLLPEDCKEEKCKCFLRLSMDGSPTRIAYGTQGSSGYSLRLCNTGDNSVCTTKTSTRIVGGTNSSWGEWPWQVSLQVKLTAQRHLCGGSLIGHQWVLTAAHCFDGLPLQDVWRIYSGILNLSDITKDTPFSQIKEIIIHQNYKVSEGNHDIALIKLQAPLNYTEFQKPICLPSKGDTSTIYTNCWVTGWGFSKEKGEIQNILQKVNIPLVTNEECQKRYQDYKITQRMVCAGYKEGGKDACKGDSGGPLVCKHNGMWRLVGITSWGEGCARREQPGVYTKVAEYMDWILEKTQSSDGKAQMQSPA

human kallikrein 2 (hK2) = human kallikrein 2 (hK2) (human, UniProt P20151 25-261); assay: cell-based or functional assay
[9] = target: T10, human kallikrein 13 (hK13) (human, UniProt Q9UKR3 26-277, limits assumed); assay: cell-based or functional assay
T10 sequence (looked up): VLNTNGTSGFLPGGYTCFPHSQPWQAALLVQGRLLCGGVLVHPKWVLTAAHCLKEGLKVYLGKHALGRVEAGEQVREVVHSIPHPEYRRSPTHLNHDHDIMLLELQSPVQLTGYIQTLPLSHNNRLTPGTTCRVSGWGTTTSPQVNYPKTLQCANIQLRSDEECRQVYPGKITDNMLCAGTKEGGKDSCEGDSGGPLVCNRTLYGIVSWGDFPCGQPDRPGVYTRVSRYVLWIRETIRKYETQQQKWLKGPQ

[10] = target: prostate specific antigen (PSA, hK3) (human, UniProt P07288 25-261); assay: cell-based or functional assay
human kallikrein 6 (hK6) = human kallikrein 6 (hK6) (human, UniProt Q92876 22-244); assay: cell-based or functional assay
[11] = target: B1; assay: cell-based or functional assay
human kallikrein 8 (hK8) = target: T11, human kallikrein 8 (hK8) (human, UniProt O60259 33-260); assay: cell-based or functional assay
T11 sequence (looked up): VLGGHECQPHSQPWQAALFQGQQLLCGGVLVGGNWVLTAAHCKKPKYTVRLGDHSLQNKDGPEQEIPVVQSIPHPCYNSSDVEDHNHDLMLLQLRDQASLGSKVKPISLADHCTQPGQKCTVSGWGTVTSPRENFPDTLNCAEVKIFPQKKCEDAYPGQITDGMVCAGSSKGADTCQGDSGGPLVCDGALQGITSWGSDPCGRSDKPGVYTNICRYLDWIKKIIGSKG

[12] = target: T12, human neutrophil elastase (HNE) (human, UniProt P08246 30-247, limits assumed); assay: cell-based or functional assay
T12 sequence (looked up): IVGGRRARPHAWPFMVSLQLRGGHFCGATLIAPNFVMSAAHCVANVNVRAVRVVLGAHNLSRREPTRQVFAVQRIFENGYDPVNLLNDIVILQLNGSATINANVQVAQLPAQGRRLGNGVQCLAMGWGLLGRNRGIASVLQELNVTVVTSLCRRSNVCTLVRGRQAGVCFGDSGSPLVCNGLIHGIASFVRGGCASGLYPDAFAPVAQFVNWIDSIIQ

human kallikrein 4 (hK4) = human kallikrein 4 (hK4) (human, UniProt Q9Y5K2 31-254, limits assumed); assay: cell-based or functional assay
human kallikrein 4 (hK4), sequence (Q9Y5K2 31-254 limits assumed): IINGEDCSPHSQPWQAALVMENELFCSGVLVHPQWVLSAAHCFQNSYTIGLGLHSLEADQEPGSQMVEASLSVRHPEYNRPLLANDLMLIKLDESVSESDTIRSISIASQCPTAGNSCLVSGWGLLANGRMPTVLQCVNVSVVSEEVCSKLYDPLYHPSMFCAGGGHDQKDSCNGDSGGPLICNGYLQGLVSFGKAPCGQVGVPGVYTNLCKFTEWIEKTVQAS

[13] = target: B1; assay: residual hK14 activity after 4 h at 37 C against [I0]/[E0]
Method: SI values of rAAT, rACT, and their variants were determined with hK14 incubating the protease with varying concentrations of inhibitor. After an incubation of 4 hours at 37° C. in reaction buffer (50 mM Tris, pH 7.5, 150 mM NaCl, 0.05% Triton X-100, 0.01% BSA), the residual activity was detected by the addition of fluorescent substrate (Boc-Val-Pro-Arg-AMC). Fluorescence was measured with excitation at 340 nm (±15) and emission at 485 nm (±10) in black 96 well plates using a microplate fluorescence reader FLₓ800 (Bio-Tek Instruments, Inc.). The SI value corresponds to the abscissa intercept of the linear regression analysis of fractional velocity (velocity of inhibited enzyme reaction (vi)/velocity of uninhibited enzyme reaction (v₀)) vs. the molar ratio of the inhibitor to enzyme ([I₀]/[E₀]).

[14] = target: B1; assay: residual hK14 activity against [I0]/[E0]
Outline: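 hK14 preincubated 4 hours at 37° C with varying inhibitor concentrations in 50 mM Tris pH 7.5, 150 mM NaCl, 0.05% Triton X-100, 0.01% BSA; residual activity read with Boc-Val-Pro-Arg-AMC (ex 340/em 485 nm). SI taken as abscissa intercept of vi/v₀ versus [I₀]/[E₀] linear regression.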

[15] = target: B1; assay: progress curve; remark: listed apart in the source

Binder: B1
- kon [1]: 263000 M⁻¹ s⁻¹
- kon (AATG9 [2]): 217000 M⁻¹ s⁻¹
- kon (AATE8): 242000 M⁻¹ s⁻¹
- kon (AATE5): 28000 M⁻¹ s⁻¹
- kon (AATC11): 63000 M⁻¹ s⁻¹
- kon (AATF3): 13000 M⁻¹ s⁻¹
- kon (AATG1): 168000 M⁻¹ s⁻¹
- kon (AATG1g): 257000 M⁻¹ s⁻¹
- kon [3]: 263000 M⁻¹ s⁻¹
- kon (AATG9 [4]): 217000 M⁻¹ s⁻¹

- kon [5]: 75000 M⁻¹ s⁻¹
- kon [6]: 74000 M⁻¹ s⁻¹
- Percentage inhibition (human kallikrein 5 (hK5)): 0%
- Percentage inhibition [7]: 100%
- Percentage inhibition (thrombin): 0%
- Percentage inhibition [8]: 0%
- Percentage inhibition (human kallikrein 2 (hK2)): 0%
- Percentage inhibition [9]: 0%
- Percentage inhibition [10]: 0%
- Percentage inhibition (human kallikrein 6 (hK6)): 0%
- Percentage inhibition [11]: 100%
- Percentage inhibition (human kallikrein 8 (hK8)): 0%
- Percentage inhibition [12]: 0%
- Percentage inhibition (human kallikrein 4 (hK4)): 0%
- SI (stoichiometry of inhibition) [13]: 1.5
- SI (stoichiometry of inhibition) [14]: 1.5
- kon [15]: 74000 M⁻¹ s⁻¹
B2: ACTG9 (other)
chain: MRGSHHHHHHSRHPNSPLDEENLTQENQDRGTHVDLGLASANVDFAFSLYKQLVLKAPDKNVIFSPLSISTALAFLSLGAHNTTLTEILKGLKFNLTETSEAEIHQSFQHLLRTLNQSSDELQLSMGNAMFVKEQLSLLDRFTEDAKRLYGSEAFATDFQDSAAAKKLINDYVKNGTRGKITDLIKDLDSQTMMVLVNYIFFKAKWEMPFDPQDTHQSRFYLSKKKWVMVPMMSLHHLTIPYFRDEELSCTVVELKYTGNASALFILPDQDKMEEVEAMLLPETLKRWRDSLEFREIGELYLPKFSISRDYNLNDILLQLGIEEAFTSKADLSGITGARNLAVSQVVHKAVLDVFEEGTEASAATAVKTVDYAALVETRTIVRFNRPFLMIIVPTDTQNIFFMSKVTNPKQA
notes: also called rACTG9
